Here are results for 1 protein from publication PMC12004702, “Characterization of a rhodopsin-phosphodiesterase from Choanoeca flexa to be combined with rhodopsin-cyclases for bidirectional optogenetic cGMP control” (The Journal of Biological Chemistry, 2025).

For orientation: Km means the substrate concentration at which the rate is half of its maximum. A word on the kcat: it is the maximal rate divided by the concentration of active sites.

Substrate in this data set: [H][C@@]12COP(=O)(O)O[C@@]1([H])[C@@H](O)[C@H](n1cnc3c(=O)[nH]c(N)nc31)O2
Briefly: HPLC initial-rate assay, Michaelis-Menten fit, membrane fraction. Type of data set: biochemical, Choanoeca flexa. Conditions: 5 mM MgCl2, 20 mM Hepes, 100 mM NaCl, 5 mM DTT, 5% glycerol.

Setting [1] is: light-adapted state (470 nm, 30 μW/mm^2).

B1: CfRhPDE1 (Choanoeca flexa) (protein)
chain: MSKAMTMREEAALELKRKGKVKNVAIATTSEVQKQGFFMMAVWIATVSILWLFSNPEASEAVFEKHGQLRVMYGATSVAFAFATALDVLAYVNAVSDEKRVLSGVLAYVDGAACLSYAAMASLPLYFILDSHNGNPIWLMRYAEWLITCPTLLYWCGLATRGERGAVADIATGDAMLLAGGALSSILPGWPSYFVFMGSVAAFVYVMTHMWGLFSKAMQPDFSPAPPLPRTALNLMRWEIVLSWTCFPMIEYSRRYFGLDYQTGEALNSIIDYAAKVGLAMIMVNCNLEQINAIKVEQMQSAMSGMVKVMRKTNARVELDGMDDDVKGWLLNEYAGDDGEDEVKVSSKSKRNQKSINPEEISASALFSWDFCSLDKSEEDLVGICIRVFRELKMIEVFDLDESKLRRFILGVRSRYNKNPFHNWKHAVMVLHTCYLFITQVAAEFCTDLEVLALLFAALCHDCDHNGVNNAFHINSRSDLALLYNDQSVLENHHCYSGFDVLYDKGNNFLDVLSEGDFKRFRSLVIDCILGTDMAHHASKLGKLEEINRLGGFSNLAENDEQRAFVMVTLLHTSDLYNPIKPFHITKKWANRLQREFNQQVEVESQMGLPSLPFMKGQGELALAKGEVGFITFVIRPWYVQLTNAFPKIDFLMDNIDTNLDMWKSIVESHE
notes: full-length, N-terminal Venus tag kept, no other change from WT; codon-optimized; membranes of ND7/23 cells; modelled as dimer
B1: for the setting “darkness (dark-adapted state)”, the Km was 4.4 ± 0.6 µM and the kcat was 2.0 ± 0.1 s⁻¹. In addition, under setting [1], the Km was 1.9 ± 0.1 µM and the kcat was found to be 4.7 ± 0.1 s⁻¹.
